Measured values reported in patent publication US8349318B2, “Use of specifically engineered enzymes to enhance the efficacy of prodrugs” (The Board of Trustees of the University of Illinois, priority 2008, dated 2013).

Assays:
[1] = system: Nc1ccn([C@@H]2O[C@H](CO)[C@@H](O)C2(F)F)c(=O)n1; test: purified protein, by the assay type; conditions: other: Table 9; pH 7.5; 37.0 °C
[2] = system: Nc1nc2c(ncn2[C@H]2C[C@H](O)[C@@H](CO)O2)c(=O)[nH]1; test: purified protein, by the assay type; conditions: other: Table 9; pH 7.5; 37.0 °C
[3] = system: T1, Cc1cn([C@@H]2C[C@@H](O)[C@H](CO)O2)c(=O)[nH]c1=O; test: Kinetic assay of nucleoside phosphorylation by R104Q-D133A dCK; assay type: biochemical, human; conditions: other: nucleoside 200 uM, 1 mM ATP
T1 construct: made in house

[4] = system: Cc1cn([C@@H]2C[C@@H](O)[C@H](CO)O2)c(=O)[nH]c1=O; test: purified protein, by the assay type; conditions: other: Table 9; pH 7.5; 37.0 °C

Sequence of Wild Type dCK (Homo sapiens) (chain, as listed by the source): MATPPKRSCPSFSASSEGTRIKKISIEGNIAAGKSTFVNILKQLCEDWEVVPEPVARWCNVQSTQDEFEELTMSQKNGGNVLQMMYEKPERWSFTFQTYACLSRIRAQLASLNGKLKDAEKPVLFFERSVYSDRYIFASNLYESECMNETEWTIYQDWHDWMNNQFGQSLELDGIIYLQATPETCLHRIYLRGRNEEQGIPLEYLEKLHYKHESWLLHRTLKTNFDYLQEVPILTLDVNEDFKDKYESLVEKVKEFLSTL
Sequence of dCK R104L/D133A (Homo sapiens; D133A/R104L) (chain, as listed by the source R104L D133A D133A R104L): as the sequence (chain, as listed by the source) above, with R104L, D133A counted along it
Sequence of R104Q-D133A dCK (Homo sapiens; D133A/R104Q) (chain, as listed by the source R104Q D133A D133A R104Q): as the sequence (chain, as listed by the source) above, with R104Q, D133A counted along it

## Wild Type dCK (Homo sapiens)
[1]
  Km: 16.1 ± 3.5 µM
  kcat: 0.39 ± 0.03 s⁻¹
[2]
  Km: 231.0 ± 20.0 µM
  kcat: 2.60 ± 0.10 s⁻¹

## R104Q-D133A dCK (Homo sapiens; D133A/R104Q)
[3]
  kcat: 0.24 s⁻¹

## dCK R104L/D133A (Homo sapiens; D133A/R104L)
[4]
  Km: 17.8 ± 1.6 µM
  kcat: 1.33 ± 0.01 s⁻¹
[1]
  Km: 33.8 ± 5.3 µM
  kcat: 2.01 ± 0.08 s⁻¹
[2]
  Km: 2266 ± 823 µM
  kcat: 3.66 ± 0.01 s⁻¹
